According to patent US20230212549A1 (3B PHARMACEUTICALS, published 2023):
Numbered stars: 1 amine (or outer) side, 2 acyl side, 3 side chain; on linkers, the order of the positions; unused ones are H or OH. Bridge positions count the residues as written; N and C are the ends. Square brackets hold non-standard residues; d marks the D form. Primed or numbered codes have the meaning given here. * marks the point of attachment. tMeBn(LuDOTA-AET) = 1,3,5-trimethylbenzylidene (from 1,3,5-tris(bromomethyl)benzene) bridge with two thioethers to the Cys, its third CH2 carries AET (2-aminoethanethiol, attached through S), whose amine is acylated by DOTA complexing lutet, O=C([O-])CN1CCN(CC(=O)[O-])CCN(CC(=O)NCCSCc2cc(C[*:1])cc(C[*:2])c2)CCN(CC(=O)[O-])CC1.[Lu+3]; Ttds″ = 1,13-diamino-4,7,10-trioxatridecan-succinamic acid spacer, O=C(CCC(=O)[*:2])NCCCOCCOCCOCCCN[*:1]; TBMB(SCH2CH2NH-DOTA) = O=C(O)CN1CCN(CC(=O)O)CCN(CC(=O)NCCSCc2cc(C[*:1])cc(C[*:2])c2)CCN(CC(=O)O)CC1; Ttds = 1,13-diamino-4,7,10-trioxatridecan-succinamic acid, O=C(CCC(=O)[*:2])NCCCOCCOCCOCCCN[*:1]; DOTA = O=C(O)CN1CCN(CC(=O)O)CCN(CC(=O)*)CCN(CC(=O)O)CC1; mXylylene = c1cc(C[*:1])cc(C[*:2])c1; AF488 = Alexa Fluor 488 label; Nle = CCCC[C@H](N)C(=O)O; Hexanoyl = CCCCCC(=O)*; Ahx = NCCCCCC(=O)O; GABA = NCCCC(=O)O; Sar = CNCC(=O)O

B1: Hex-[Cys(tMeBn(DOTA-AET))-Pro-Pro-Thr-Gln-Phe-Cys]-Asp-Ttds-Lys(DOTA)-NH2 (peptide)
peptide: Hexanoyl-CPPTQFCD[Ttds″]K(DOTA)-NH2
modifications: linker 1-7 via TBMB(SCH2CH2NH-DOTA); not fully specified (residue 1); printed as Hex-[Cys(tMeBn(DOTA-AET))-Pro-Pro-Thr-Gln-Phe-Cys]-Asp-Ttds-Lys(DOTA)-NH2
notes: also called 3BP-4391
B2: Hex-[Cys(tMeBn(DOTA-PP))-Nmg-Pro-Thr-Gln-Phe-Cys]-OH (peptide)
peptide: Hexanoyl-C[Sar]PTQFC-OH
modifications: bridge 1-7; not fully specified (residue 1, bridges); printed as Hex-[Cys(tMeBn(DOTA-PP))-Nmg-Pro-Thr-Gln-Phe-Cys]-OH
notes: also called 3BP-3771
B3: H-Ahx-Ttds-Nle-[Cys-(3MeBn)-Pro-Pro-Thr-Gln-Phe-Cys]-Asp-NH2 (peptide)
peptide: H-[Ahx][Ttds][Nle]CPPTQFCD-NH2
modifications: linker 4-10 via mXylylene
SMILES: CCCC[C@H](NC(=O)CCC(=O)NCCCOCCOCCOCCCNC(=O)CCCCCN)C(=O)N[C@H]1CSCc2cccc(c2)CSC[C@@H](C(=O)N[C@@H](CC(=O)O)C(N)=O)NC(=O)[C@H](Cc2ccccc2)NC(=O)[C@H](CCC(N)=O)NC(=O)[C@H]([C@@H](C)O)NC(=O)[C@@H]2CCCN2C(=O)[C@@H]2CCCN2C1=O
notes: also called 3BP-3980
B4: Hex-[Cys(tMeBn(DOTA-AET))-Nmg-Pro-Thr-Gln-Phe-Cys]-NH2 (peptide)
peptide: Hexanoyl-C[Sar]PTQFC-NH2
modifications: linker 1-7 via TBMB(SCH2CH2NH-DOTA)
SMILES: CCCCCC(=O)N[C@H]1CSCc2cc(CSCCNC(=O)CN3CCN(CC(=O)O)CCN(CC(=O)O)CCN(CC(=O)O)CC3)cc(c2)CSC[C@@H](C(N)=O)NC(=O)[C@H](Cc2ccccc2)NC(=O)[C@H](CCC(N)=O)NC(=O)[C@H]([C@@H](C)O)NC(=O)[C@@H]2CCCN2C(=O)CN(C)C1=O
notes: also called 3BP-3744
B5: Hex-[Cys(tMeBn(LuDOTA-AET))-Pro-Pro-Thr-Gln-Phe-Cys]-Asp-Gab-Arg-Ttds-Lys(AF488)-NH2 (peptide)
peptide: Hexanoyl-CPPTQFCD[GABA]R[Ttds″]K(AF488)-NH2
modifications: linker 1-7 via tMeBn(LuDOTA-AET); not fully specified (residue 1); printed as Hex-[Cys(tMeBn(LuDOTA-AET))-Pro-Pro-Thr-Gln-Phe-Cys]-Asp-Gab-Arg-Ttds-Lys(AF488)-NH2; also: DOTA complexing lutetium
notes: also called 3BP-4372
B6: Hex-[Cys-(tMeBn(DOTA-AET))-Pro-Pro-Thr-Glu-Phe-Cys]-OH (peptide)
peptide: Hexanoyl-CPPTEFC-OH
modifications: linker 1-7 via TBMB(SCH2CH2NH-DOTA)
SMILES: CCCCCC(=O)N[C@H]1CSCc2cc(CSCCNC(=O)CN3CCN(CC(=O)O)CCN(CC(=O)O)CCN(CC(=O)O)CC3)cc(c2)CSC[C@@H](C(=O)O)NC(=O)[C@H](Cc2ccccc2)NC(=O)[C@H](CCC(=O)O)NC(=O)[C@H]([C@@H](C)O)NC(=O)[C@@H]2CCCN2C(=O)[C@@H]2CCCN2C1=O
notes: also called 3BP-4250

Each binder was assayed against T1, Recombinant human FAP (R&D systems, #3715-SE) (human, UniProt Q12884 26-760) (assay: cell-based or functional assay).

| pIC50 Category (Activity) [pIC50] | Binder |
| --- | --- |
| > 8 | B1 |
| > 8 | B2 |
| > 8 | B3 |
| > 8 | B4 |
| > 8 | Hexanoyl-CPPTQFCD-NH2 (linker 1-7 via tMeBn(H-O2Oc-AET), also called 3BP-4003) [Hex-[Cys-(tMeBn(H-O2Oc-AET))-Pro-Pro-Thr-Gln-Phe-Cys]-Asp-NH2] |
| > 8 | B5 |
| > 8 | Hexanoyl-CPPTQFCD-NH2 (linker 1-7 via tMeBn(H-O2Oc-PP), also called 3BP-3967) [Hex-[Cys-(tMeBn(H-O2Oc-PP))-Pro-Pro-Thr-Gln-Phe-Cys]-Asp-NH2] |

These binders were tested against T2, human fibroblast activation protein (FAP) on WI-38 fibroblasts (human, UniProt Q12884 1-760) (assay: competitive FACS, WI-38 cells, Cy5-labeled peptide as competitor).
T2 construct: FAP-expressing human WI-38 fibroblasts (ECACC)

| pIC50 Category (FACS) [pIC50] | Binder |
| --- | --- |
| > 8 | B6 |
| > 8 | B1 |
| > 8 | B2 |
| > 8 | B3 |
| > 8 | B4 |
| > 8 | Hexanoyl-CPPTQFCD-NH2 (linker 1-7 via tMeBn(H-O2Oc-AET), also called 3BP-4003) [Hex-[Cys-(tMeBn(H-O2Oc-AET))-Pro-Pro-Thr-Gln-Phe-Cys]-Asp-NH2] |
| > 8 | B5 |
| > 8 | Hexanoyl-CPPTQFCD-NH2 (linker 1-7 via tMeBn(H-O2Oc-PP), also called 3BP-3967) [Hex-[Cys-(tMeBn(H-O2Oc-PP))-Pro-Pro-Thr-Gln-Phe-Cys]-Asp-NH2] |

These binders were tested against T1, Recombinant human FAP (R&D systems, …) (assay: SPR (Biacore T200), FAP captured on anti-FAP antibody, single cycle kinetics).

| pKD Category [pKD] | Binder |
| --- | --- |
| > 8 | B6 |
